Test results taken from patent publication US20200369773A1 (CELDARA MEDICAL, published 2020).

T1: FITC-recombinant mouse Fn14:human Fc (ENZO ALX-522-036F) (mouse, UniProt Q9CR75 28-80, FITC label (site not stated))
T1 construct: Bought reagent; also called FITC-recombinant Fn14; recombinant Fn14; not shown: human Fc
T1 sequence: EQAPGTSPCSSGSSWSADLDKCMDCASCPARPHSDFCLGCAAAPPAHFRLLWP


The binders below were run against T1, FITC-recombinant mouse Fn14:human Fc … (assay: flow cytometry; transduced mouse T cells stained with FITC-recombinant mouse Fn14:human Fc).
Description: Cell samples that were subjected to transduction with pFB vector containing the anti-Fn14 CAR and T2A+mtrCD19 (4A8H_mt19, 4A8L_mt19, 3G5H_mt19, 3G5L_mt19) construct or just the T2A+mtrCD19 (mt19) construct (from Day 8 of Example 1) were harvested, and 0.25×10⁶ cells in 100 μL of FACS buffer were placed in a 96 well round bottom plate. The plate was spun at 500 ref for 1 min at room temperature, and the supernatant was removed. Cells in each well were resuspended in 25 μL of Blocking buffer and incubated on ice for 10 min.
Cells were then added with 150 μL of FACS buffer and spun at 500 ref for 2 min, and the supernatant was removed. This washing step was repeated once more with 200 μL of FACS buffer.
For the same day FACS analysis, cells in each well were resuspended in 250 μL of FACS buffer and analyzed on flow cytometer. For the next day analysis, cells were diluted in 250 μL of Fixation buffer until analyzed the following day. Cells were stored on ice or 4° C., protected from light, until run on FACS machine.

Row | Binder | % anti-Fn14 CAR^+ of CD3^+ cells (staining with FITC-recombinant Fn14) [%]
1 | mouse truncated CD19 (mtrCD19), mock construct without CAR (other, Negative control: mouse T cells transduced with a vector that encodes only mtrCD19 and no CAR; also called mt19; mock transduced cells) RPQKSLLVEVEEGGNVVLPCLPDSSPVSSEKLAWYRGNQSTPFLELSPGSPGLGLHVGSLGILLVIVNVSDHMGGFYLCQKRPPFKDIWQPAWTVNVEDSGEMFRWNASDVRDLDCDLRNRSSGSHRSTSGSQLYVWAKDHPKVWGTKPVCAPRGSSLNQSLINQDLTVAPGSTLWLSCGVPPVPVAKGSISWTHVHPRRPNVSLLSLSLGGEHPVREMWVWGSLLLLPQATALDEGTYYCLRGNLTIERHVKVIARSAVWLWLLRTGGWIVPVVTLVYVIFCMVSLVAFLYCQRAFILRRKRKRMT | 1.6
2 | scFvP3G5VHVL-mCD28H-mCD28TM-mCD28CS-mCD3zICS (anti-Fn14 CAR) (receptor, Chimeric antigen receptor on transduced mouse T cells) QVQLQQSGPEVVRPGVSVKISCKGSGYTFTDYGIHWVKQSHAKSLEWIGVISTYNGYTNYNQKFKGKATMTVDKSSSTAYMELARLTSEDSAIYYCARAYYGNLYYAMDYWGQGTSVTVSSGGGGSGGGGSGGGGSDIVLTQSPASLAVSLGQRATISCRANKSVSTSSYSYMHWYQQKPGQPPKLLIKYASNLESGVPARFSGSGSGTDFILNIHPVEEEDAATYYCQHSRELPFTFGSGTKLEIKIKEKHLCHTQSSPKLFWALVVVAGVLFCYGLLVTVALCVIWTNSRRNRLLQSDYMNMTPRRPGLTRKPYQPYAPARDFAAYRPRAKFSRSAETAANLQDPNQLYNELNLGRREEYDVLEKKRARDPEMGGKQQRRRNPQEGVYNALQKDKMAEAYSEIGTKGERRRGKGHDGLYQGLSTATKDTYDALHMQTLAPR | 10.8
3 | scFvP3G5VLVH-mCD28H-mCD28TM-mCD28CS-mCD3zICS (anti-Fn14 CAR) (receptor, Chimeric antigen receptor on transduced mouse T cells) DIVLTQSPASLAVSLGQRATISCRANKSVSTSSYSYMHWYQQKPGQPPKLLIKYASNLESGVPARFSGSGSGTDFILNIHPVEEEDAATYYCQHSRELPFTFGSGTKLEIKGGGGSGGGGSGGGGSQVQLQQSGPEVVRPGVSVKISCKGSGYTFTDYGIHWVKQSHAKSLEWIGVISTYNGYTNYNQKFKGKATMTVDKSSSTAYMELARLTSEDSAIYYCARAYYGNLYYAMDYWGQGTSVTVSSIKEKHLCHTQSSPKLFWALVVVAGVLFCYGLLVTVALCVIWTNSRRNRLLQSDYMNMTPRRPGLTRKPYQPYAPARDFAAYRPRAKFSRSAETAANLQDPNQLYNELNLGRREEYDVLEKKRARDPEMGGKQQRRRNPQEGVYNALQKDKMAEAYSEIGTKGERRRGKGHDGLYQGLSTATKDTYDALHMQTLAPR | 11.4
